For 5 molecules, β-galactosidase activity of yeast L40 (yeast 2-hybrid), ratio based on TAB1C68 (ratio to TAB1C68) results are on record in patent US20030162228A1.

Where no end group is shown, it is not given here.

T1: TAK1 expressed from yeast 2-hybrid expression vector pBTMHu11F (Homo sapiens (Human)) (UniProt O43318)
T1 sequence: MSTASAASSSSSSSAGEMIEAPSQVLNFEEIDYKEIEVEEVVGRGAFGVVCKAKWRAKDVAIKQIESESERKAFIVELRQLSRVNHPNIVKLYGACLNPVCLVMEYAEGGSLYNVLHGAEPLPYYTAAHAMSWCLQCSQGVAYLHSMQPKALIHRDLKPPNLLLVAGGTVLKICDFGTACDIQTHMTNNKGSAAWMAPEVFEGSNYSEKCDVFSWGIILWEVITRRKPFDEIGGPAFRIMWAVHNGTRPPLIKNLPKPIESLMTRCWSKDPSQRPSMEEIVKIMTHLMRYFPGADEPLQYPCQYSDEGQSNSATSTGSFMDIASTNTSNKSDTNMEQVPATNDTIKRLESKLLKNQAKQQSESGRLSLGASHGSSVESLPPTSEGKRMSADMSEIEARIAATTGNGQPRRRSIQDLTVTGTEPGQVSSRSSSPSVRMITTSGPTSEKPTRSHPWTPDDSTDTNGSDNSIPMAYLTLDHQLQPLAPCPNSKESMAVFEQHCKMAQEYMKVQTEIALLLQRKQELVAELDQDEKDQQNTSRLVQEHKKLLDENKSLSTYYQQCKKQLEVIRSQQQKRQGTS

In the test the target is T1, TAK1 expressed from yeast 2-hybrid expression vector pBTMHu11F (Homo sapiens (Human)). Description: cell-based or functional assay.
As to FAEFYRLWSVDHGEQSVVTAP (peptide, not shown: large carriers, also: fusion with GAL4 transcription activation domain) [TAB1C21, fusion with the GAL4 transcription activated domain (pGAD-TAB1C21)], the β-galactosidase activity of yeast L40 (yeast 2-hybrid), ratio based on TAB1C68 (ratio to TAB1C68) is 0.03.
Then YVDFAEFYRLWSVDHGEQSVVTAP (peptide, not shown: large carriers, also: fusion with GAL4 transcription activation domain) [TAB1C24, fusion with the GAL4 transcription activated domain (pGAD-TAB1C24)], with 0.35.
In the case of DFAEFYRLWSVDHGEQSVVTAP (peptide, not shown: large carriers, also: fusion with GAL4 transcription activation domain) [TAB1C22, fusion with the GAL4 transcription activated domain (pGAD-TAB1C22)], the β-galactosidase activity of yeast L40 (yeast 2-hybrid), ratio based on TAB1C68 (ratio to TAB1C68) was determined as 0.03.
Take AEFYRLWSVDHGEQSVVTAP (peptide, not shown: large carriers, also: fusion with GAL4 transcription activation domain) [TAB1C20, fusion with the GAL4 transcription activated domain (pGAD-TAB1C20)]: the β-galactosidase activity of yeast L40 (yeast 2-hybrid), ratio based on TAB1C68 (ratio to TAB1C68) was 0.03.
Take VDFAEFYRLWSVDHGEQSVVTAP (peptide, not shown: large carriers, also: fusion with GAL4 transcription activation domain) [TAB1C23, fusion with the GAL4 transcription activated domain (pGAD-TAB1C23)]: the β-galactosidase activity of yeast L40 (yeast 2-hybrid), ratio based on TAB1C68 (ratio to TAB1C68) was found to be 0.05.
